Test results reported in US20240294570.

What was measured:
[1] = test system: T1, L-phosphopentapeptide 5, NBD-βA-LLLLpY
T1 sequence: XLLLLX

[2] = test system: T2, phosphopentapeptide 7, NBD-βA-LLpYLL
T2 sequence: XLLXLL

[3] = test system: T3, phosphopentapeptide 9, NBD-βA-llllpY
T3 sequence: LLLLY

[4] = test system: T4, phosphopeptide 3, NBD-βA-LLLpY
T4 sequence: XLLLX

In the case of “Alkaline phosphatase (Biomatik, Cat. No. A1130)”, the “conversion of 5 to 6 after 1 hour, 0.1 U/mL ALP” value [1] is reported as “After 1 hour of incubation, 32.7% of 5 turns into 6”, the “conversion of 5 to 6 after 2 hours, 0.1 U/mL ALP” value [1] is reported as “After 2 hours of incubation of 5 with 0.1 U/mL of ALP, 49.6% of 5 becomes 6” and the “dephosphorylation ratio after 5 hours, 400 µM of 5, 0.5 U/mL ALP” value [1] is reported as “After 5 hours of incubation, 400 µM of 5 results in a dephosphorylation ratio of 93.8%”. The “final dephosphorylation ratio, 5 (400 µM), 0.1 U/mL ALP” value [1] was “the final dephosphorylation ratio is 69.1%”, the “fraction of 5 hydrolyzed at 40 minutes, 0.1 U/mL ALP” value [1] was “At the time point 40 minutes, about 24% of 5 is hydrolyzed by ALP” and the “conversion ratio of 7 to 8 after 5 h, 0.5 U/mL ALP” value [2] was “After 5 h of incubation, the conversion ratio of 7 to 8 is 61.5%”. For the same substance, the “conversion ratio of 9 to 10 after 5 hours, 0.5 U/mL ALP” value [3] was “After 5 hours of incubation, the conversion ratio of 9 to 10 is 93.3%” and the “dephosphorylation catalyzed by ALP” value [4] was 3 is able to turn into 4 upon dephosphorylation catalyzed by ALP.
